Results published in US20020049303A1 (OKLAHOMA MEDICAL RESEARCH FOUNDATION, published 2002).
Where no end group is shown, it is not given here.

Tests used:
[1] = biological target: T1, recombinant memapsin 2 (M2pd), auto-activated from pro-M2pd at pH 4.0 (human, UniProt P56817 25-419, limits assumed); test: Ki quoted for the inhibitor used in the crystal trials; assay not described at this place
T1 construct: also called beta-secretase

[2] = biological target: T1, recombinant memapsin 2 (M2pd), …; test: enzyme inhibition with a synthetic fluorogenic peptide substrate
Experimental: Enzyme activity was measured as described above, but with the addition of either OM99-1 or OM99-2.

[3] = biological target: T1, recombinant memapsin 2 (M2pd), …; test: comparison of Ki of the inhibitor without P4 Glu with that of OM99-2

T1 sequence (P56817 25-419 limits assumed): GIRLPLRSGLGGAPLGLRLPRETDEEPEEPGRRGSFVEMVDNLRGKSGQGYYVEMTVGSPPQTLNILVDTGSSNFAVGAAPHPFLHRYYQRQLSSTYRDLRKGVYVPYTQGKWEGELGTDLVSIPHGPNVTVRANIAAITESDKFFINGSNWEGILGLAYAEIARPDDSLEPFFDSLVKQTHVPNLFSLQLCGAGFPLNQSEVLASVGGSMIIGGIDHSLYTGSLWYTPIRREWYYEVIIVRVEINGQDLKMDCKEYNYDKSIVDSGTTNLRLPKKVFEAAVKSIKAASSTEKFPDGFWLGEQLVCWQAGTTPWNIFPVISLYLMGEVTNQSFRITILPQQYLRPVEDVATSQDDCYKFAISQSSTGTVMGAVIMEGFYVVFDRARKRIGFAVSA

Ki [1] [nM]	Ki [2] [nM]	fold increase in Ki against OM99-2 [3] [fold]	Binder
10			EVNLAAEF (also: Leu-Ala peptide bond replaced by hydroxyethylene isostere -CH(OH)-CH2-) [OM99-2: Glu-Val-Asn-Leu*Ala-Ala-Glu-Phe]
	30	10	VNLAAEF (also: Leu-Ala peptide bond replaced by hydroxyethylene isostere -CH(OH)-CH2-, also called OMR99-1) [OM99-1: Val-Asn-Leu*Ala-Ala-Glu-Phe]
